Tests used:
[1] = molecular target: SHP2-C SH2; assay: SH2 binding enrichment of the phosphorylated peptide, bacterial display (enrichment ratio); higher = better substrate or ligand; peptides without Tyr show the background
[2] = molecular target: Grb2 SH2 (UniProt P62993); assay: as above
[3] = molecular target: c-Src SH2; assay: as above
[4] = molecular target: FGFR3 (UniProt P22607); assay: phosphorylation enrichment, bacterial display (enrichment ratio); higher = better substrate or ligand; peptides without Tyr show the background
Chain of FGFR3 (P22607 whole entry, looked up): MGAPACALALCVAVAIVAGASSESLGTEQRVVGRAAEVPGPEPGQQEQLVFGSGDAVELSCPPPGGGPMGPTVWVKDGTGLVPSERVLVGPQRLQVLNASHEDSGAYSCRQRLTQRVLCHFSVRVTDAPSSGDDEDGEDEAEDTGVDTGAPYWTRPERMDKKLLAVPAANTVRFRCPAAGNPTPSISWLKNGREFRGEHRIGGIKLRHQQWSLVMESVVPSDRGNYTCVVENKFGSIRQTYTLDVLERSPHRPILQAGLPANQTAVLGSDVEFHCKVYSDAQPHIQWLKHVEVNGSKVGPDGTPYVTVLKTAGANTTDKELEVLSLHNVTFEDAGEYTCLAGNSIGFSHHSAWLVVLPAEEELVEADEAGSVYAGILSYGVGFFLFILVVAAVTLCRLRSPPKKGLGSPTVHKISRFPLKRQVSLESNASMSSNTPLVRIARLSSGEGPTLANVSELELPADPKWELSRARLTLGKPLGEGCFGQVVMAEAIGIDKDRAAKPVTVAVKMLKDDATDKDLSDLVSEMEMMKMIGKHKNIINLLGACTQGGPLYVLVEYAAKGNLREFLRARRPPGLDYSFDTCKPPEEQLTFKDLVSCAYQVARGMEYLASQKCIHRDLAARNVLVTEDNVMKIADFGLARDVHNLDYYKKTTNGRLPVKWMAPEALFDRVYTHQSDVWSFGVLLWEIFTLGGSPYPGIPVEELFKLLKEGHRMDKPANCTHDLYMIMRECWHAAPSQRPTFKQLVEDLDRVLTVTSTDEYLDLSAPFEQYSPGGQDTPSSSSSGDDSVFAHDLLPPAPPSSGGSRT

[5] = system: AncSZ; assay: as above
[6] = system: Fer (mouse); assay: as above
[7] = system: c-Abl (mouse); assay: as above
[8] = molecular target: FGFR1 (UniProt P11362); assay: as above
[9] = molecular target: MERTK (UniProt Q12866); assay: as above
[10] = system: c-Src; assay: as above
[11] = molecular target: Fyn (UniProt P06241); assay: as above
Chain of Fyn (P06241 whole entry, looked up): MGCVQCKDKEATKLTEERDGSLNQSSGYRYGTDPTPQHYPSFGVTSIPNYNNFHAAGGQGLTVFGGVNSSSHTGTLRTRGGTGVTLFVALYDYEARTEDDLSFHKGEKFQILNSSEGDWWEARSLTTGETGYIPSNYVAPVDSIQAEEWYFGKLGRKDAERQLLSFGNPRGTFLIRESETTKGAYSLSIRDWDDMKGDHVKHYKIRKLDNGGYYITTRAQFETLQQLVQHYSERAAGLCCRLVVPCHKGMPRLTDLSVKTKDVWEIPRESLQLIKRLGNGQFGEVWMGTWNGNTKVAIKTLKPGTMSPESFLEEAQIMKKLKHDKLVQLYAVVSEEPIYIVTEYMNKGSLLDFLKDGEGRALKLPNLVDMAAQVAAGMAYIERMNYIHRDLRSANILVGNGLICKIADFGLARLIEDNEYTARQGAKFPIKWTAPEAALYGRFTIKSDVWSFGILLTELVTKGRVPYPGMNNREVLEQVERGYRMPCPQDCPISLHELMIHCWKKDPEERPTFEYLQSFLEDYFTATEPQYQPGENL

[12] = molecular target: EPHB1 (UniProt P54762); assay: as above
Chain of EPHB1 (P54762 whole entry, looked up): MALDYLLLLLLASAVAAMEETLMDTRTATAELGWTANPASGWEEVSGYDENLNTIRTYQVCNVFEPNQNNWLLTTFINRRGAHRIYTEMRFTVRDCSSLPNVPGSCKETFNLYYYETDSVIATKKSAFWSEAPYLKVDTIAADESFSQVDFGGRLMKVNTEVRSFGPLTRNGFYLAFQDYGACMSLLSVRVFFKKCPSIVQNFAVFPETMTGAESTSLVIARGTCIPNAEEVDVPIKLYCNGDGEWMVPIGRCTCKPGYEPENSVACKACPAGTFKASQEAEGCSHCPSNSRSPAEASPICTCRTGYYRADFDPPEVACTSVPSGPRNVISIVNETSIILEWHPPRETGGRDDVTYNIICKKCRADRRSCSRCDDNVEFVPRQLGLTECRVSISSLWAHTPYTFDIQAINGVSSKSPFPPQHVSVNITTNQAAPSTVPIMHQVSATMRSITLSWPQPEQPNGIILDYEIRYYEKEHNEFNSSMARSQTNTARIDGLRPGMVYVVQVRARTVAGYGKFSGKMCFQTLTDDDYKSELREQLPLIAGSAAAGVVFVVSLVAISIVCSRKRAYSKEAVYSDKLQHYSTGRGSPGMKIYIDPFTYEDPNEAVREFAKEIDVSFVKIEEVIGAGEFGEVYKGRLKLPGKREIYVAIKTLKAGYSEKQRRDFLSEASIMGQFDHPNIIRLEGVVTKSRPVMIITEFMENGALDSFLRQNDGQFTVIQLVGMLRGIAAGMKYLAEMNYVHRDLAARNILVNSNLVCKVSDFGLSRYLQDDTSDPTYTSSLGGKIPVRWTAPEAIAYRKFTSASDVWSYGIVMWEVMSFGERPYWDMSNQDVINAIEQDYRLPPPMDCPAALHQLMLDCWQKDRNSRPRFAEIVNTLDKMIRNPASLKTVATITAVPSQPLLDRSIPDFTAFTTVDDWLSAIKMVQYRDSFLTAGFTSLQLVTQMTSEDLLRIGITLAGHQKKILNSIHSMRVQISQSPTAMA

[13] = molecular target: Jak2 (UniProt O60674); assay: as above
Chain of Jak2 (O60674 whole entry, looked up): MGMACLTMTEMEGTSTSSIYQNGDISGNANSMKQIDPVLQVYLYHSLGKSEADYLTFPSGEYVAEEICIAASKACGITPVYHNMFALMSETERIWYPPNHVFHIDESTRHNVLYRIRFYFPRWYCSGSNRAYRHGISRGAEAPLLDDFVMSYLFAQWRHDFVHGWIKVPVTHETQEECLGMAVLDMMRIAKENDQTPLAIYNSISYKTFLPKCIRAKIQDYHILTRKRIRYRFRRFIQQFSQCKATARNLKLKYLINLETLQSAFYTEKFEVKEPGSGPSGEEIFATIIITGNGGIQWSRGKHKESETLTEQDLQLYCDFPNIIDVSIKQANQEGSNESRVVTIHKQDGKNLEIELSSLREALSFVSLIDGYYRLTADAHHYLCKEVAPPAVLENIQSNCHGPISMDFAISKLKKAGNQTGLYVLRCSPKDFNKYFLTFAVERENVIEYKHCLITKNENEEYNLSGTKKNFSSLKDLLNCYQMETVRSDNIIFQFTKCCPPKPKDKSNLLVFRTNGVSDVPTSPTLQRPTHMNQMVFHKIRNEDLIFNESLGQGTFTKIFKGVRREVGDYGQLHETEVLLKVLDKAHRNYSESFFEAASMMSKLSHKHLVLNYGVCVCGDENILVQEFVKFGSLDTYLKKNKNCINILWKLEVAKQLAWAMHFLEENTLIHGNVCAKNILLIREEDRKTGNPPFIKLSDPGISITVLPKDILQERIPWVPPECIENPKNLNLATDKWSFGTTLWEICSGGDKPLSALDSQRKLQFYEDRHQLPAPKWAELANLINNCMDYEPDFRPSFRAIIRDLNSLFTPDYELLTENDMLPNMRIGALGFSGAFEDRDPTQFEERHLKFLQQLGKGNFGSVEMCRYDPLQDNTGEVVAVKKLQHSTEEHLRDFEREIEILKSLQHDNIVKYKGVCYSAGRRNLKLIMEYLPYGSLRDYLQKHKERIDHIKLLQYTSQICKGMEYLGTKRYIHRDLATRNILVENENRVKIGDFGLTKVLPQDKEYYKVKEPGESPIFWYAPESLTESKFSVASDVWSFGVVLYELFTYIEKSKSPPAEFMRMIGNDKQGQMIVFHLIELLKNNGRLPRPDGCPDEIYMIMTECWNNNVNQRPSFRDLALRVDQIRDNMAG

[14] = molecular target: Fes (UniProt P07332); assay: as above
[15] = molecular target: Hck (UniProt P08631); assay: as above
[16] = molecular target: EPHB2 (UniProt P29323); assay: as above
Chain of EPHB2 (P29323 whole entry, looked up, the tested form may be a part): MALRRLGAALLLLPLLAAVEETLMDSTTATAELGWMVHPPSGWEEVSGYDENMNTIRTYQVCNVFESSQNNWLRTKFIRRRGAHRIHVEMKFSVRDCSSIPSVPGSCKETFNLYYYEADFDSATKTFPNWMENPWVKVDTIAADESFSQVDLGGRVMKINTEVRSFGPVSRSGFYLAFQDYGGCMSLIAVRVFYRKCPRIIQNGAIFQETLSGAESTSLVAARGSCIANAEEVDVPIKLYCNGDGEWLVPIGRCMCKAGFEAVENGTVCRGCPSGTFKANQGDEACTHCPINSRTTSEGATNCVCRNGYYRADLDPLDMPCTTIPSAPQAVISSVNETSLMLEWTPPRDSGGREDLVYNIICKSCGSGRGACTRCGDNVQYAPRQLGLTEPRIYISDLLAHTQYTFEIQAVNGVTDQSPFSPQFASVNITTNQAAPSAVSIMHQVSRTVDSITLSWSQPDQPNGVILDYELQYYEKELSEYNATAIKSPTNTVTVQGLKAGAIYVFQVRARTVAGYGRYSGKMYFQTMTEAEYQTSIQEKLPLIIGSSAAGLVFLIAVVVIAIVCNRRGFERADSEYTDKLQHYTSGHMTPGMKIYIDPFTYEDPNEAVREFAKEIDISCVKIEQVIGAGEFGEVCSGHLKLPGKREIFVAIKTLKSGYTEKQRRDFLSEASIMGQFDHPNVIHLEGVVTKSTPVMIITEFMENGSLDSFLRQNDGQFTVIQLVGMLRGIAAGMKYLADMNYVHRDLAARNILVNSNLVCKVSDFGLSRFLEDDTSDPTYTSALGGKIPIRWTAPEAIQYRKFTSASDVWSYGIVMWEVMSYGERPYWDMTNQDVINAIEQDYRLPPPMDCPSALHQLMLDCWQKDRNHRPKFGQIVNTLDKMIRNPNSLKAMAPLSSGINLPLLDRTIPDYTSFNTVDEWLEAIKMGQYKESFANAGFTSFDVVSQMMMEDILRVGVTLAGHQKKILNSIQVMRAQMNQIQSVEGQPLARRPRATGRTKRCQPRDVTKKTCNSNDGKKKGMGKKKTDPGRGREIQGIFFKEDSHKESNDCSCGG
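Wherever SH2 binding enrichment of the phosphorylated peptide, bacterial display is given: peptide library displayed on the E. coli surface as eCPX fusions, selected cells deep-sequenced, score is each peptide's frequency after selection divided by its frequency in the input.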
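Wherever phosphorylation enrichment, bacterial display is given: 11-residue human phosphosite peptides and single-mutation variants displayed on the E. coli surface, counted by deep sequencing, each peptide's frequency after selection divided by its frequency in the unselected input library; frequency after pTyr selection over input frequency; kinase dosed for 20-30% of maximal phosphorylation in three min.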

Chain of Grb2 SH2 (P62993 whole entry, looked up): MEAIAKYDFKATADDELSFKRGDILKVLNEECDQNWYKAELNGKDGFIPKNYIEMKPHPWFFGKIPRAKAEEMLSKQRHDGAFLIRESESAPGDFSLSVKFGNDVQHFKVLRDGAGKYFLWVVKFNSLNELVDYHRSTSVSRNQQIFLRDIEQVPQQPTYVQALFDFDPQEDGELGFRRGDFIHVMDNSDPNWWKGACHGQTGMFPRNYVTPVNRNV

Sequence: YEEDSYSHIMA [FDPS_Y388]
- SH2 binding enrichment [1]: 0.564
- SH2 binding enrichment [2]: 0.733
- SH2 binding enrichment [3]: 2.41
- phosphorylation enrichment [4]: 1.18
- phosphorylation enrichment [5]: 1.85
- phosphorylation enrichment [6]: 1.48
- phosphorylation enrichment [7]: 0.663
- phosphorylation enrichment [8]: 1.35
- phosphorylation enrichment [9]: 0.561
- phosphorylation enrichment [10]: 0.813
- phosphorylation enrichment [11]: 0.64
- phosphorylation enrichment [12]: 0.67
- phosphorylation enrichment [13]: 1.06
- phosphorylation enrichment [14]: 1.26
- phosphorylation enrichment [15]: 0.976
- phosphorylation enrichment [16]: 0.714

Sequence: YEEDSYVKRSQ [RET_Y905]
- SH2 binding enrichment [1]: 0.514
- SH2 binding enrichment [2]: 0.719
- SH2 binding enrichment [3]: 1.43
- phosphorylation enrichment [4]: 0.775
- phosphorylation enrichment [5]: 1.17
- phosphorylation enrichment [6]: 0.529
- phosphorylation enrichment [7]: 0.714
- phosphorylation enrichment [8]: 0.495
- phosphorylation enrichment [9]: 0.51
- phosphorylation enrichment [10]: 0.544
- phosphorylation enrichment [11]: 0.489
- phosphorylation enrichment [12]: 0.626
- phosphorylation enrichment [13]: 1.09
- phosphorylation enrichment [14]: 1.23
- phosphorylation enrichment [15]: 0.49
- phosphorylation enrichment [16]: 0.643

Sequence: YGIAQYCCRMG [LRRK2_Y2023]
- SH2 binding enrichment [1]: 0.936
- SH2 binding enrichment [2]: 1.21
- SH2 binding enrichment [3]: 0.806
- phosphorylation enrichment [4]: 0.583
- phosphorylation enrichment [5]: 0.983
- phosphorylation enrichment [6]: 0.902
- phosphorylation enrichment [7]: 3.48
- phosphorylation enrichment [8]: 0.605
- phosphorylation enrichment [9]: 4.29
- phosphorylation enrichment [10]: 0.665
- phosphorylation enrichment [11]: 0.8
- phosphorylation enrichment [12]: 1
- phosphorylation enrichment [13]: 0.482
- phosphorylation enrichment [14]: 0.762
- phosphorylation enrichment [15]: 1.02
- phosphorylation enrichment [16]: 11.2

Sequence: YGSSSYGGAGG [RPA2_Y14]
- SH2 binding enrichment [1]: 0.793
- SH2 binding enrichment [2]: 0.734
- SH2 binding enrichment [3]: 0.438
- phosphorylation enrichment [4]: 0.409
- phosphorylation enrichment [5]: 0.457
- phosphorylation enrichment [6]: 0.381
- phosphorylation enrichment [7]: 0.899
- phosphorylation enrichment [8]: 0.35
- phosphorylation enrichment [9]: 0.359
- phosphorylation enrichment [10]: 0.442
- phosphorylation enrichment [11]: 0.414
- phosphorylation enrichment [12]: 0.714
- phosphorylation enrichment [13]: 0.476
- phosphorylation enrichment [14]: 0.626
- phosphorylation enrichment [15]: 0.39
- phosphorylation enrichment [16]: 0.305

Sequence: YGSSSYRGAGG [RPA2_Y14_G15R]
- SH2 binding enrichment [1]: 0.507
- SH2 binding enrichment [2]: 0.877
- SH2 binding enrichment [3]: 0.49
- phosphorylation enrichment [4]: 0.409
- phosphorylation enrichment [5]: 0.491
- phosphorylation enrichment [6]: 0.465
- phosphorylation enrichment [7]: 0.623
- phosphorylation enrichment [8]: 0.343
- phosphorylation enrichment [9]: 0.369
- phosphorylation enrichment [10]: 0.412
- phosphorylation enrichment [11]: 0.386
- phosphorylation enrichment [12]: 0.393
- phosphorylation enrichment [13]: 0.528
- phosphorylation enrichment [14]: 0.483
- phosphorylation enrichment [15]: 0.443
- phosphorylation enrichment [16]: 0.334

Sequence: YIPSNYVAEDR [FRK_Y104]
- SH2 binding enrichment [1]: 0.948
- SH2 binding enrichment [2]: 1
- SH2 binding enrichment [3]: 0.761
- phosphorylation enrichment [4]: 0.72
- phosphorylation enrichment [5]: 0.921
- phosphorylation enrichment [6]: 0.434
- phosphorylation enrichment [7]: 0.685
- phosphorylation enrichment [8]: 0.634
- phosphorylation enrichment [9]: 0.535
- phosphorylation enrichment [10]: 0.536
- phosphorylation enrichment [11]: 0.523
- phosphorylation enrichment [12]: 0.519
- phosphorylation enrichment [13]: 0.721
- phosphorylation enrichment [14]: 0.954
- phosphorylation enrichment [15]: 0.501
- phosphorylation enrichment [16]: 0.623

Sequence: YKIYRYTLNDN [FN1_Y1975_L1974R]
- SH2 binding enrichment [1]: 0.832
- SH2 binding enrichment [2]: 0.77
- SH2 binding enrichment [3]: 0.534
- phosphorylation enrichment [4]: 0.617
- phosphorylation enrichment [5]: 1.13
- phosphorylation enrichment [6]: 0.406
- phosphorylation enrichment [7]: 0.688
- phosphorylation enrichment [8]: 0.439
- phosphorylation enrichment [9]: 0.331
- phosphorylation enrichment [10]: 0.415
- phosphorylation enrichment [11]: 0.368
- phosphorylation enrichment [12]: 0.467
- phosphorylation enrichment [13]: 0.905
- phosphorylation enrichment [14]: 1.04
- phosphorylation enrichment [15]: 0.573
- phosphorylation enrichment [16]: 0.557

Sequence: YLGEEYVKAVG [TF_Y674]
- SH2 binding enrichment [1]: 0.788
- SH2 binding enrichment [2]: 0.795
- SH2 binding enrichment [3]: 0.509
- phosphorylation enrichment [4]: 0.523
- phosphorylation enrichment [5]: 0.908
- phosphorylation enrichment [6]: 0.393
- phosphorylation enrichment [7]: 0.645
- phosphorylation enrichment [8]: 0.446
- phosphorylation enrichment [9]: 0.403
- phosphorylation enrichment [10]: 0.444
- phosphorylation enrichment [11]: 0.465
- phosphorylation enrichment [12]: 0.454
- phosphorylation enrichment [13]: 0.698
- phosphorylation enrichment [14]: 0.823
- phosphorylation enrichment [15]: 0.329
- phosphorylation enrichment [16]: 0.391

Sequence: YLTSSYINIST [IL23R_Y178]
- SH2 binding enrichment [1]: 1.9
- SH2 binding enrichment [2]: 11.7
- SH2 binding enrichment [3]: 2.21
- phosphorylation enrichment [4]: 1.29
- phosphorylation enrichment [5]: 0.978
- phosphorylation enrichment [6]: 0.567
- phosphorylation enrichment [7]: 1.11
- phosphorylation enrichment [8]: 1.27
- phosphorylation enrichment [9]: 0.648
- phosphorylation enrichment [10]: 0.466
- phosphorylation enrichment [11]: 0.488
- phosphorylation enrichment [12]: 0.735
- phosphorylation enrichment [13]: 1.81
- phosphorylation enrichment [14]: 1.18
- phosphorylation enrichment [15]: 0.637
- phosphorylation enrichment [16]: 0.588

Sequence: YNNYGYGNDGF [HNRNPH3_Y161]
- SH2 binding enrichment [1]: 0.591
- SH2 binding enrichment [2]: 2.52
- SH2 binding enrichment [3]: 1.85
- phosphorylation enrichment [4]: 0.766
- phosphorylation enrichment [5]: 0.789
- phosphorylation enrichment [6]: 0.566
- phosphorylation enrichment [7]: 0.547
- phosphorylation enrichment [8]: 0.766
- phosphorylation enrichment [9]: 0.759
- phosphorylation enrichment [10]: 0.505
- phosphorylation enrichment [11]: 0.577
- phosphorylation enrichment [12]: 3.61
- phosphorylation enrichment [13]: 0.673
- phosphorylation enrichment [14]: 0.924
- phosphorylation enrichment [15]: 0.455
- phosphorylation enrichment [16]: 6.45

Sequence: YPSLPYSPVSS [CAMKK2_Y128_C123Y]
- SH2 binding enrichment [1]: 1.01
- SH2 binding enrichment [2]: 0.967
- SH2 binding enrichment [3]: 0.668
- phosphorylation enrichment [4]: 0.721
- phosphorylation enrichment [5]: 0.663
- phosphorylation enrichment [6]: 3.13
- phosphorylation enrichment [7]: 0.564
- phosphorylation enrichment [8]: 0.873
- phosphorylation enrichment [9]: 0.514
- phosphorylation enrichment [10]: 0.546
- phosphorylation enrichment [11]: 0.458
- phosphorylation enrichment [12]: 0.436
- phosphorylation enrichment [13]: 0.489
- phosphorylation enrichment [14]: 0.683
- phosphorylation enrichment [15]: 0.62
- phosphorylation enrichment [16]: 0.401

Sequence: YRAVKYLQMVG [AVPR2_Y117_C112Y]
- SH2 binding enrichment [1]: 2.33
- SH2 binding enrichment [2]: 0.709
- SH2 binding enrichment [3]: 0.372
- phosphorylation enrichment [4]: 0.653
- phosphorylation enrichment [5]: 0.95
- phosphorylation enrichment [6]: 0.429
- phosphorylation enrichment [7]: 0.621
- phosphorylation enrichment [8]: 0.552
- phosphorylation enrichment [9]: 0.385
- phosphorylation enrichment [10]: 0.36
- phosphorylation enrichment [11]: 0.397
- phosphorylation enrichment [12]: 0.582
- phosphorylation enrichment [13]: 0.766
- phosphorylation enrichment [14]: 0.827
- phosphorylation enrichment [15]: 0.584
- phosphorylation enrichment [16]: 0.539

Sequence: YSGDYYRIQGR [DDR2_Y741]
- SH2 binding enrichment [1]: 0.673
- SH2 binding enrichment [2]: 1.01
- SH2 binding enrichment [3]: 0.552
- phosphorylation enrichment [4]: 8.65
- phosphorylation enrichment [5]: 1.82
- phosphorylation enrichment [6]: 0.429
- phosphorylation enrichment [7]: 1.76
- phosphorylation enrichment [8]: 12.1
- phosphorylation enrichment [9]: 5.04
- phosphorylation enrichment [10]: 2.31
- phosphorylation enrichment [11]: 1.04
- phosphorylation enrichment [12]: 5.47
- phosphorylation enrichment [13]: 8.46
- phosphorylation enrichment [14]: 0.846
- phosphorylation enrichment [15]: 1.68
- phosphorylation enrichment [16]: 2.72

Sequence: YSIDHYLGKEM [G6PD_Y202_R198S]
- SH2 binding enrichment [1]: 0.781
- SH2 binding enrichment [2]: 0.72
- SH2 binding enrichment [3]: 0.577
- phosphorylation enrichment [4]: 0.617
- phosphorylation enrichment [5]: 0.773
- phosphorylation enrichment [6]: 0.455
- phosphorylation enrichment [7]: 0.555
- phosphorylation enrichment [8]: 0.589
- phosphorylation enrichment [9]: 1.3
- phosphorylation enrichment [10]: 0.538
- phosphorylation enrichment [11]: 0.568
- phosphorylation enrichment [12]: 0.509
- phosphorylation enrichment [13]: 0.828
- phosphorylation enrichment [14]: 0.671
- phosphorylation enrichment [15]: 0.563
- phosphorylation enrichment [16]: 0.561

Sequence: YTGDIYSSSNL [LZTR1_Y141_N143S]
- SH2 binding enrichment [1]: 0.697
- SH2 binding enrichment [2]: 1.03
- SH2 binding enrichment [3]: 0.592
- phosphorylation enrichment [4]: 0.626
- phosphorylation enrichment [5]: 0.917
- phosphorylation enrichment [6]: 2.91
- phosphorylation enrichment [7]: 1.97
- phosphorylation enrichment [8]: 0.613
- phosphorylation enrichment [9]: 3.2
- phosphorylation enrichment [10]: 4.97
- phosphorylation enrichment [11]: 6.08
- phosphorylation enrichment [12]: 1.27
- phosphorylation enrichment [13]: 0.504
- phosphorylation enrichment [14]: 0.74
- phosphorylation enrichment [15]: 7.13
- phosphorylation enrichment [16]: 1.53

Sequence: YTHSDYQYSQR [PKP2_Y166]
- SH2 binding enrichment [1]: 0.638
- SH2 binding enrichment [2]: 0.785
- SH2 binding enrichment [3]: 0.595
- phosphorylation enrichment [4]: 0.507
- phosphorylation enrichment [5]: 0.892
- phosphorylation enrichment [6]: 0.42
- phosphorylation enrichment [7]: 0.444
- phosphorylation enrichment [8]: 0.467
- phosphorylation enrichment [9]: 0.474
- phosphorylation enrichment [10]: 0.434
- phosphorylation enrichment [11]: 0.403
- phosphorylation enrichment [12]: 0.479
- phosphorylation enrichment [13]: 0.757
- phosphorylation enrichment [14]: 0.594
- phosphorylation enrichment [15]: 0.391
- phosphorylation enrichment [16]: 0.482

Sequence: YTNELYMMMRD [FGFR1_Y730_C725Y]
- SH2 binding enrichment [1]: 0.645
- SH2 binding enrichment [2]: 2.09
- SH2 binding enrichment [3]: 1.63
- phosphorylation enrichment [4]: 2.27
- phosphorylation enrichment [5]: 1.68
- phosphorylation enrichment [6]: 0.982
- phosphorylation enrichment [7]: 0.766
- phosphorylation enrichment [8]: 2.52
- phosphorylation enrichment [9]: 5.02
- phosphorylation enrichment [10]: 2.18
- phosphorylation enrichment [11]: 1.4
- phosphorylation enrichment [12]: 5.42
- phosphorylation enrichment [13]: 1.35
- phosphorylation enrichment [14]: 1.35
- phosphorylation enrichment [15]: 2.85
- phosphorylation enrichment [16]: 3.13

Source: the supplement of paper PMC10065799, “High-throughput profiling of sequence recognition by tyrosine kinases and SH2 domains using bacterial peptide display” (eLife, 2023)
